Experiment: soluble on expression in E. coli; label from the status in PepcDB or PDB records

| Sequence | soluble on expression in E. coli |
| --- | --- |
| MQQRRPVRRALLSVSDKAGIVEFAQALSARGVELLSTGGTARLLAEKGLPVTEVSDYTGFPEMMDGRVKTLHPKVHGGILGRRGQDDAIMEEHQIQPIDMVVVNLYPFAQTVAREGCSLEDAVENIDIGGPTMVRSAAKNHKDVAIVVKSSDYDAIIKEMDDNEGSLTLATRFDLAIKAFEHTAAYDSMIANYFGSMVPAYHGESKEAAGRFPRTLNLNFIKKLDMRYGENSHQQAAFYIEENVKEASVATATQVQGKALSYNNIADTDAALECVKEFAEPACVIVKHANPCGVAIGNSILDAYDRAYKTDPTSAFGGIIAFNRELDAETAQAIISRQFVEVIIAPSASEEALKITAAKQNVRVLTCGQWGERVPGLDFKRVNGGLLVQDRDLGMVGAEELRVVTKRQPSEQELRDALFCWKVAKFVKSNAIVYAKNNMTIGIGAGQMSRVYSAKIAGIKAADEGLEVKGSSMASDAFFPFRDGIDAAAAAGVTCVIQPGGSIRDDEVIAAADEHGIAMLFTDMRHFRH | soluble |
| SSVPPGSIIVSDWHRCPDSREFFSKILHKKRRRKFGLLEAPMMPPQMNVDLVRYKVFLSGKTGVGKSALAARLAGLDLPKMHYETTGIETTVVFWPVRLKESGRVLFFRFELWDCGESAMRRFDHMLLSCKEKVDAILFLFSFTDRGSFDDLTNQISRITEPSDRVVKLVVGTKFDLFMHTDVTESDVTHFQEVWGLPVFRVGGDVSAGLGEVAPLLNALAENLWHQDCMAASSVSISPQAALRETSSEIIV | not soluble |
| MGSDKIHHHHHHADDSYLIDGGKANPYYNGNMMQYLESRPDYFKDLVEVIRLSGMEDVFEDEQITFFAPTDWSIRGSFNYLNRIWYRMGHDSIKSFSQIKPEVWREMLSMYIVKDKYLLKDIPQIDTTAIAAYPGQAFLSYGQQPMNMGVVYYDANNVKYAGARQIIYSYVYDFTIGDMKNAYVATSDIQPTNGVVHVLRLTDHAFGFEPYLFATKAINATIETEPDN | not soluble |
| MSLNGPLKIGYYKIGAAYRDGKGYDVDMVRELARRLGCPIANETELPRLRALKMLETGQIDVSASTLATPDRLQYAWIYQYNHAKNMVLLNPAIQARTLATLLEDPALRWGAIRGYHHGPSQDKLLEELNARHKVVIANDEDDLYKMLGNGVVTAVFAQPFSYGRWLRELPNPNQIVVLDLYPETDMVASGLALSKARFSREAAEKWHQELLKMYQDGSLYDIMRRYLNEGHHHHHH | not soluble |
| MYDFAIIGSGVAGATLAKELRYRYKVAVIEKGKKPSYASEGKNVEINYVYGLGGSGVYSLGNAIKTEIKGYKIDKDIYKEIWEELKIKAPKDDFLNDIDKAFIELGFEKMEKFIDFDRCNKCGECARKICKAKWTPLNYLKESNANIITEFNIKAINYSNYYEILDDKGRKIKAKNLIISAGGINSPRILKKMIDDENIGKNLFIDTFVTVGGILEDSYLNKDISMLVYKKYKNFMLATHYSKLLINEIKKDYKDVKEKDIVGIMIKIKDENNGVVLDNDVKKEITKEDFKTLARGICKATKYLYKLGVDDIYTTIPRGSHPGGSLSLVVDEFEVREGLYVCDASLFKEALGVPPIVSIIALSKKFVREILLEHHHHHH | not soluble |
| GPGSMRRFPPPPPTRTCAHERVKHAVPIPFRVTCFWPAMSAAPSEAFAEAETMEQLRLKGNACFADDPAEAAKYYTQAVQLYEERHGEDAACSLDEFTKSAGNALTCLFKMGETEQCAALAVRVLASNPILAKANAFYGRCALVDPSLDSVSTGFGTASAAALVHLCRAIYELPALEPNTRENIDEALTRLIGERVSVTETFARSPEAGVKLVRGQCGVGVEAIRTLPPLVEVVSLLTPFSVGAFEDFAGKGCCVECSKPIGLDVADAAAEEPNEDDGDEENDKDEGNVKATKEKPSTCTACNMVVYCSPACADAHREQHERFECARMTRLSDMMQGIEARKLDVPEQFFELAYHCITTLAGIKAKRAGHERVLTLTAHVDEVIQSLHPIGPLMCDLFKGEERPATLYTIIGVLCCNALELADPSGLGVAQALHAGNSIASFFNHSCTPNCAIDTVRHAIVTTRTIHVGEELSIAYIPQLYWPTRLRRERLSESYYFVCRCQRCESSNKDPFERALSMELPTARREATKHFHPIVQTTCATVRSRMVGDVSQKDADELSKLLRELSTHLFPFHYLCHEVRNCLSFVYAVLGQTRECLCSCLDELLMWECILPGALPVKRMKIENALQCVQGFGANVSDCSAALLPHLSRLALVYDAEGPI | not soluble |
| MDAGLDARGKGWARAITRLCDEHLYYLMLYFRWFDEDSWRVLKPVFFGSLPFGVRDAVAWAMRRKVRATLRAQGLGVHGRDELLAFARDDLDALDGLLGQVPYYGGEHPCSADAAAYGILANLIEATLDTPLSHVARGYPRLVAYCERMRERVWSELEHHHHHH | not soluble |
| MSDASLKTYQKQWAYQKYWVMAHSQQHYNALRELFKGNQWSEEKVLTFHCLIEEAQAIPPTVKSLRTAYQHVWGYFKKVASQEEKDHFKDLDAQLETKSEEMLCFLQEMTAHYQPSYLLSCRLITKGP | not soluble |
| MAHHHHHHMGCFNSTDAVADQDPASGYMYTKPNAKGTKEALFGGLLYRITDEEEGGLAFYNNSKDYEFHIKYLFGADSELNAVGDTKLEMQDDGILAEVVVYPLETKPFVQGTIDGYETKLEALPLSEEYFALHPEIDEAAYYRRLEAPKSSRF | soluble |
| ADDILNVHRRNAKDPFAVGAVDAPLVITEFSDFECPFCARWSNQTEPTLMEEYVSKGLVRIEWNDLPVNGEHALAAAKAGRAAAAQGKFDEFRKALFEASRNVSGHPNNTLKDFERFARNAGVKDMERFSREAQDSTYDEVLTKAADYAHGLGVSGTPAFVVGTQYISGAQPTEEFIKVIESELKKSPTFSTPSSHQN | not soluble |
| MSLASLSLAPVNIFKAGADEERAETARLTSFIGAIAIGDLVKSTLGPKGMDKILLSSGRDASLMVTNDGATILKNIGVDNPAAKVLVDMSRVQDDEVGDGTTSVTVLAAELLREAESLIAKKIHPQTIIAGWREATKAAREALLSSAVDHGSDEVKFRQDLMNIAGTTLSSKLLTHHKDHFTKLAVEAVLRLKGSGNLEAIHIIKKLGGSLADSYLDEGFLLDKKIGVNQPKRIENAKILIANTGMDTDKIKIFGSRVRVDSTAKVAEIEHAEKEKMKEKVERILKHGINCFINRQLIYNYPEQLFGAAGVMAIEHADFAGVERLALVTGGEIASTFDHPELVKLGSCKLIEEVMIGEDKLIHFSGVALGEACTIVLRGATQQILDEAERSLHDALCVLAQTVKDSRTVYGGGCSEMLMAHAVTQLANRTPGKEAVAMESYAKALRMLPTIIADNAGYDSADLVAQLRAAHSEGNTTAGLDMREGTIGDMAILGITESFQVKRQVLLSAAEAAEVILRVDNIIKAAPRKRVPDHHEGHHHHHH | not soluble |
| MRSYAIGDIHGHLSLLQEIHGRIAADRARTGDDEAPVVHIGDLVDRGPDSRGVVEYLRQGIEQGENWVVLKGNHDRMFAGFLRDPAHQDPGLRGDLSWLHPRLGGGPTLESYGVAHAADRPVAIVHREAVALVPAEHVAFIEALPAVYRRDEALFVHAGIRPGVPLAEQIEDDLVWIREPFLSDPRDHGMLVVHGHTAIDAVTHYGNRLNLDSGAAYGGPLSAVVIEGRSVWQLGPEGRRPIALEHHHHHH | not soluble |
| MAHHHHHHMTYYTVEEITDRRINENDGAIEYAVKWEGVAGELTWEKRHQLTENCAETVQAVDQRCMDATDEELERWRDGKWKRGAKRAHDAPPLVGTTTERRKRSRSVSPAAGEDLEQVEVLNGLLLRPPCGAQNAEEEGTILMLGEVVLAEEASAILNGTGSYRKKCRTATVSTAVAFHTAPALDIEKRWRGIHGQSLLHSIEVAQSITPFHPHFRLHGCDPATRCAMALEVERSSHLRIISIAPPLMTHSGAVFGLPVALDPLVGEKDVEQLRQSVQLESPLFGSAAQELVKPHVEQMVVRYIIPEVTPATDDDTATPTTELFPVHGRIASMPLSVFRVVFPQLLIDYLLTNSVVLR | not soluble |
| MEIQIVTGFLGAGKTTFLNRYLPLLSGKTVVIENEFGDIGIDGDRIQEDIPVREIFAGCICCSLAMDFRKGIKEIAENFHPDRILIEPSGVGRLTDIVKACQMAREREKVSLQITKLIAIVDMASFEEYIEGFGAFYQDQIERAGLLLLSHVEAENKAQKEIIIGRLKELNPDAILYDGDWRQLENEELLKLLEEAPDYDEDARRDAAFAALPADKVFSSVSFMDLPQMRIEDLEAIMKALEKEEYGYILRAKGWIETMEKGLVHFDFTPTVSKYREEKNPAGTGGEAVVIGCGLNQAALEMLFRRKNILEHHHHHH | soluble |

Source: the DeepSol protein solubility set
